Consider 84 variants from the RNAGym collection of RNA variant scans (doi:10.1073/pnas.2313332121).

The chains are these.
B1: TPR 5TU (parent)
chain: GGAUCUUCUCGAUCUAACAAAAAAGACAAAUCUGCCACAAAGCUUGAGAGCAUCUUCGGAUGCAGAGGCGGCAGCCUUCGGUGGCGCGAUAGCGCCAACGUUCUCAACUAUGACACGCAAAACGCGUGCUCCGUUGAAUGGAGUUUAUCAUG

Variants at the floor of the assay were thinned out. Where only a bound is given, the exact number is not on record here.

In this series the parent is B1. Description: polymerase ribozyme fitness, log enrichment relative to wild type (log ratio); higher = more active; in vitro selection for triplet polymerase activity. The essentials: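 Fitness is a logarithmic measure of how a genotype enriched relative to the wild type, with replicate averages weighted by inverse variance. The logarithm uses base 2, and enrichment came from Illumina sequencing of input and output libraries. Those libraries were PCR-built, transcribed mutants of each subunit of a heterodimeric triplet polymerase ribozyme, passed through one triplicate in vitro selection round that included frozen incubation at −7 °C, gel excision of extended constructs and streptavidin-bead capture. Genotypes were kept only if they had ≥10 input reads and ≥1 read per output.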
With A29U A142G C149U, the “polymerase ribozyme fitness (log ratio)” value is not above -4.2. For the variant A29G G94U A97G C149U, the “polymerase ribozyme fitness (log ratio)” value is not above -4.2.

As for A30C U33C G67A C93G A119U, the “polymerase ribozyme fitness (log ratio)” value is -3.89.

With A30U A37U U53A C87U, the “polymerase ribozyme fitness (log ratio)” value was not above -4.2. Take A30U A47C G50A C54G G92C C123G: the “polymerase ribozyme fitness (log ratio)” value was not above -4.2. For U31A A39G A40U A41C G48A C95U C131G U148A, the “polymerase ribozyme fitness (log ratio)” value is not above -4.2. Turning to A30C G68A C87U A106U A120G, the “polymerase ribozyme fitness (log ratio)” value is not above -4.2. Consider A30U G58C U90G C95A, for which the “polymerase ribozyme fitness (log ratio)” value is not above -4.2. The same measure for A29U U61A A91C C96A G128C: not above -4.2; for A30U A52G G58A G70U C79U G83A C93U: not above -4.2.

Regarding A29U A66U C79A G83A C96A A142U, the “polymerase ribozyme fitness (log ratio)” value was not above -4.2. On to A29U G65A C87A A91C U109G, for which the “polymerase ribozyme fitness (log ratio)” value was not above -4.2. Regarding U31A A52C G58C G83A, the “polymerase ribozyme fitness (log ratio)” value is -4.11. A30G A41U U135A A137U: the “polymerase ribozyme fitness (log ratio)” value was not above -4.2. On to A29U C36U, for which the “polymerase ribozyme fitness (log ratio)” value is not above -4.2. Consider A30G C76U, for which the “polymerase ribozyme fitness (log ratio)” value is -3.9.

As to A30C U44G C108G U145G, the “polymerase ribozyme fitness (log ratio)” value is not above -4.2. As for A30C C54U C96G G141A, the “polymerase ribozyme fitness (log ratio)” value was not above -4.2. For A30G U45A U78C G80C A89C G94U, the “polymerase ribozyme fitness (log ratio)” value was not above -4.2. Consider A30G C57A, for which the “polymerase ribozyme fitness (log ratio)” value was -2.9. The same measure for A29U C36U G62A U109G: not above -4.2; for A29U A39G C57G A66C C85G A91U: not above -4.2. The figure for A30G C51U G68C A121G U127C is not above -4.2; for A30G G141C it is -3.51. Turning to A30U U33C A138G, the “polymerase ribozyme fitness (log ratio)” value is not above -4.2. The same measure for A29G U33C G141A U145A: not above -4.2. For the variant A29G C57A G58U C95U C125G, the “polymerase ribozyme fitness (log ratio)” value is not above -4.2. Turning to A30C G65A G67C G100A A119U, the “polymerase ribozyme fitness (log ratio)” value is not above -4.2. The same measure for A29U U109G C149G: not above -4.2; for A29G U78G G84C: not above -4.2; for A30G G42A U55G G65A C76G C87G A106U G143A A147C: not above -4.2.

On to A30C C79G C85U A106U, for which the “polymerase ribozyme fitness (log ratio)” value is not above -4.2. Consider A29U C76G G84U C96A A122U U144A, for which the “polymerase ribozyme fitness (log ratio)” value was not above -4.2. Regarding A30G A91G, the “polymerase ribozyme fitness (log ratio)” value was not above -4.2. The same measure for A30U C43G: not above -4.2. As to U31A C54A G84A C96U C132U, the “polymerase ribozyme fitness (log ratio)” value is -3.31. Regarding A30U A52G U53A U146G, the “polymerase ribozyme fitness (log ratio)” value was not above -4.2.

As to A30U A66U C85U A106C, the “polymerase ribozyme fitness (log ratio)” value is not above -4.2. The same measure for A29U A52U U53A G80A C87A G128U U146C: not above -4.2; for A30G A60G C93A C105G C132A A142U: not above -4.2; for A30U G50C U56A A66C G141A: not above -4.2. Consider A30U A122U, for which the “polymerase ribozyme fitness (log ratio)” value is -2.62. Consider A30G C35U U56G A66G U82G C99U A119U G126A A142C, for which the “polymerase ribozyme fitness (log ratio)” value was not above -4.2. Turning to A30U U56G G84A C96U A113C C125U U134A A142U, the “polymerase ribozyme fitness (log ratio)” value is not above -4.2. As to U31A C36A A52G C76A C95U G124A G140U U145G, the “polymerase ribozyme fitness (log ratio)” value was not above -4.2.

As for U31A C51G, the “polymerase ribozyme fitness (log ratio)” value is -0.943. For U31A C69G A89U C96G U104A, the “polymerase ribozyme fitness (log ratio)” value was -3.89. The same measure for A29U C96U: -3.19. With A29U U134A, the “polymerase ribozyme fitness (log ratio)” value was not above -4.2. As to A29U A41U C75U C123U G143U U145G, the “polymerase ribozyme fitness (log ratio)” value was not above -4.2. With A30U A73U G74U C76G U90G U139C, the “polymerase ribozyme fitness (log ratio)” value is not above -4.2. As for A30U A106G, the “polymerase ribozyme fitness (log ratio)” value is -2.9. Consider A29U A30C A49G C57U C87A G100A G141A, for which the “polymerase ribozyme fitness (log ratio)” value was not above -4.2. A29U G86A C87U C105A C116A U146A: the “polymerase ribozyme fitness (log ratio)” value is not above -4.2. Turning to A30U A52U C93A, the “polymerase ribozyme fitness (log ratio)” value was not above -4.2. For A30C G92C G126A, the “polymerase ribozyme fitness (log ratio)” value was not above -4.2.

For A29G C131U, the “polymerase ribozyme fitness (log ratio)” value was not above -4.2. Regarding A29U G92A A142C, the “polymerase ribozyme fitness (log ratio)” value was not above -4.2. For A30G G48A G80U G88U U109C, the “polymerase ribozyme fitness (log ratio)” value is not above -4.2. The figure for A29U U31G C36U C69G G84A is not above -4.2. For A30U C54U A73G C95A C116U, the “polymerase ribozyme fitness (log ratio)” value is -4.03. With A30U A73G, the “polymerase ribozyme fitness (log ratio)” value is -3.78. In the case of A30U C87G U101G U146A C149G, the “polymerase ribozyme fitness (log ratio)” value was not above -4.2.

For the variant U31A C51U A73G C95G, the “polymerase ribozyme fitness (log ratio)” value is -3.09. As to A30G G74U C95A U148G, the “polymerase ribozyme fitness (log ratio)” value is not above -4.2. In the case of A29U G46A U61A U78G C87G A89C G124U U148G, the “polymerase ribozyme fitness (log ratio)” value was not above -4.2. On to A30C C72G G86U A106G U144C C149G, for which the “polymerase ribozyme fitness (log ratio)” value is not above -4.2. Take A29U A39U U55A C79A C93G: the “polymerase ribozyme fitness (log ratio)” value is not above -4.2. For the variant A29U G70U, the “polymerase ribozyme fitness (log ratio)” value is not above -4.2. Regarding A29U G94U C149G, the “polymerase ribozyme fitness (log ratio)” value is not above -4.2.

A30C U31C C32A G46C G50C G58U G88C U104C A122G: the “polymerase ribozyme fitness (log ratio)” value was not above -4.2. The same measure for A30G C32G U56A C57G G86U A142G: not above -4.2; for A30U A52G U56G G80C G84U A98C A110U: not above -4.2; for A30U C38U: -3.76. With A30C G62U U90G C95A G124A A138C U151C, the “polymerase ribozyme fitness (log ratio)” value was not above -4.2. As to A30U G42A U55G C69A G126U A142C, the “polymerase ribozyme fitness (log ratio)” value is not above -4.2. In the case of A29U U45G G86C U148A, the “polymerase ribozyme fitness (log ratio)” value is not above -4.2.

With A29G G58C A73U G92C A98G C125A, the “polymerase ribozyme fitness (log ratio)” value was not above -4.2. The figure for U31A A41G C76U C93A G136A G140A is -3.72; for A29U C35A A60G C85A G126A it is not above -4.2. On to A30U U55A, for which the “polymerase ribozyme fitness (log ratio)” value was -2.96.

As to A29U A41C A52C C87U U102C G136A G143C U146A, the “polymerase ribozyme fitness (log ratio)” value is not above -4.2. On to A30U U144A, for which the “polymerase ribozyme fitness (log ratio)” value was -3.67. As to A29U A41U C69U C95A C118G C125U U148A, the “polymerase ribozyme fitness (log ratio)” value was not above -4.2.
